Laboratory results published in publication PMC6307106.

Legend:
[1] = target: PDGFRα extracellular domain (Homo sapiens, UniProt P16234 24-524); assay: SPR
PDGFRβ (recombinant) = PDGFRβ (recombinant) (UniProt P09619 33-532); assay: SPR
Sequence of PDGFRβ (recombinant) (P09619 33-532): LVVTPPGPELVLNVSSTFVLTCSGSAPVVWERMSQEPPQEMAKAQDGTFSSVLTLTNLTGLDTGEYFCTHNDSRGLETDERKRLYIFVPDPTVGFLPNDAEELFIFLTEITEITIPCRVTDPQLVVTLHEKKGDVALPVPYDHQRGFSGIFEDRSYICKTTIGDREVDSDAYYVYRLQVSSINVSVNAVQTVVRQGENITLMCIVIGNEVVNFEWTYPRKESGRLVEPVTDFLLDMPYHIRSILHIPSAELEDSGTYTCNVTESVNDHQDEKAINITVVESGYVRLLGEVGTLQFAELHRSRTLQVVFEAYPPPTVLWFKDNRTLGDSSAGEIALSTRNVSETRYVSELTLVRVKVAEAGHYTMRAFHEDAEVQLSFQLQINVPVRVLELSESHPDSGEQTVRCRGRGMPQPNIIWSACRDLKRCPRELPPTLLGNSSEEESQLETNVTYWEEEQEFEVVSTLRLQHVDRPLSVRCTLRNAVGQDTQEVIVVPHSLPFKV

Sequence of PDGFRα extracellular domain (P16234 24-524): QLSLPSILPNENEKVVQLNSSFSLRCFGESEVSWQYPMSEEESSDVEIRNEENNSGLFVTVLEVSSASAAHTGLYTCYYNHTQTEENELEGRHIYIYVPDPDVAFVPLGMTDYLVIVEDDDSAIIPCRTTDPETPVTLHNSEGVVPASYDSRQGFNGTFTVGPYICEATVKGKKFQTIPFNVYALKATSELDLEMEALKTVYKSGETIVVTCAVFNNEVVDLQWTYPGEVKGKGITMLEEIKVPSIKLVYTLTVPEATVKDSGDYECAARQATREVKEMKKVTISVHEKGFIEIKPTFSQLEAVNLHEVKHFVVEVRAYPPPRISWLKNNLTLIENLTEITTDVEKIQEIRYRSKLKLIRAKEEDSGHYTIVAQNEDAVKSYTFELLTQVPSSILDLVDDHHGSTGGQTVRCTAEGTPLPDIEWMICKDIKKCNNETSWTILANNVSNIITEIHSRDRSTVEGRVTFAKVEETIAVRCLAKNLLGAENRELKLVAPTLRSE

B1: PDR3 (structured_RNA)
RNA: GGGAGAGCGGAAGCGUGCUGGGCCUGCUCUUUAAUAAACCCACUUUCGAACAUCAGCGUAUGUCCAUAACCCAGAGGUGAUGGAUCCCCC
modifications: 2'-F pyrimidines (2'F-U, 2'F-C)
Kd [1]: 0.25 nM
binding result (PDGFRβ (recombinant)): no binding
